Patent US9173950B2, “Vitamin D-ghrelin conjugates” (Extend Biosciences, Inc., priority 2012, dated 2015)
Read-outs that look alike come from different tables or passages of the source. Each block holds one molecule with its values, some of them ahead of it.

Tests used:
GHS-R = target: T1, GHS-R (Homo sapiens, UniProt Q92847); test: Cell-based ghrelin receptor agonist assay, calcium flux (FLIPR) in GHS-R-expressing CHO-K1 cells; conditions: in the presence of 10% serum that contains DBP
T1 construct: host or cells: CHO-K1
Protocol: The test compounds were added to GHS-R-expressing CHO-K1 cell cultures. […] The activity was measured by a calcium flux-based assay developed by GenScript USA Inc. for the FLIPR™ (Fluorescence Imaging Plate Reader) high-throughput cellular screening instrument.
CHO-K1 cells expressing GHS-R were cultured in Ham's F12 supplemented with 10% fetal bovine serum, 500 mg/mL G418 and were passaged in order to maintain optimal cell health. The cells were seeded in a 384-well black-wall, clear-bottom plate at a density of 20,000 cells per well in 20 μL of growth medium 18 hours prior to the assay and maintained at 37° C./5% CO2. […] The intracellular calcium levels in the cells were measured for 20 seconds using the FLIPR™ instrument prior to addition of the test articles. […] Changes in intracellular calcium levels were measured for an additional 100 sec (21 to 120 seconds).
The average value of the 20 second reading (1 to 20 seconds) was calculated as the baseline reading and the relative fluorescent units (ΔRFU) intensity values were calculated with the maximal fluorescent units (21 to 120 seconds) subtracting the average value of baseline reading. […]
The % activation of compound was calculated using the following equation: % activation=(ΔRFUCompound−ΔRFUBackground)/(ΔRFUAgonist control−ΔRFUBackground)}*100% activation was then plotted as a function of the log of the cumulative doses of compounds. […]

[1] = Pharmacokinetics of rGhrelin and rGhrelin-carrier conjugate after IV injection, plasma ELISA; format: in vivo, Sprague Dawley rats; conditions: 0.1 mg/kg IV
Protocol: Pharmacokinetics of rGhrelin (SEQ ID NO:6) or the rGhrelin-carrier conjugate was studied in Sprague Dawley rats. Briefly, 0.1 mg/kg of each molecule was injected separately into the rats by intravenous (IV) injection. Samples of plasma were collected at 30 mins, 60 mins, 120 mins, 240 mins, 360 mins, 24 hrs and 48 hrs. Samples were analyzed using a commercial ELISA kit validated for analyzing rGhrelin from rat plasma (Millipore, Cat. #EZRGRT-91K). […] Thus, ghrelin in a conjugated form is a useful therapeutic for the treatment of ghrelin-responsive diseases such as cachexia, anorexia and frailty in the elderly.

[2] = human, in vivo; cited from earlier work
[3] = Pharmacokinetics of FGF21 and FGF21-carrier conjugate after SC injection, plasma ELISA; format: in vivo, Sprague Dawley rats; conditions: 0.1 mg/kg SC
Protocol: Pharmacokinetics of FGF21 (SEQ ID NO:3) or the FGF21-carrier conjugate was studied in Sprague Dawley rats. Briefly, 0.1 mg/kg of each molecule was injected separately into the rats by SC injection. Samples of plasma were collected at 30 mins, 60 mins, 120 mins, 240 mins, 360 mins, 24 hrs and 48 hrs. Samples were analyzed using a commercial ELISA kit validated for FGF21 (Millipore, Cat. #EZHFGF21-19K).

T1 sequence (Q92847 whole entry, species assumed): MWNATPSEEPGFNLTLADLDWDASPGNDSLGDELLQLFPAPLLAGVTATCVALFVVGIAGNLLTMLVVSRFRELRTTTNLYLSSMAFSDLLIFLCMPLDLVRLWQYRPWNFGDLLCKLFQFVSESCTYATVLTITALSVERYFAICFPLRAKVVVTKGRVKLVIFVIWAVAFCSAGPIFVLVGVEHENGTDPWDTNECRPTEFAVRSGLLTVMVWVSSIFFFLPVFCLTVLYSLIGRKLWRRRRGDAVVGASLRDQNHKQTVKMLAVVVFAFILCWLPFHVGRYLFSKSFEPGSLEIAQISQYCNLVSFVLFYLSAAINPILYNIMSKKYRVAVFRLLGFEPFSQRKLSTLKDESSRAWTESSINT

interference in receptor binding and activation (GHS-R): No interference
Molecule: rGhrelin-carrier conjugate: Rat ghrelin peptide (SEQ ID NO:6) conjugated via free cysteine to the Vitamin D3-PEG-maleimide carrier of Example 1 (GSSFLSPEHQKAQQRKESKKPPAKLQPRC; Vitamin D3-PEG-maleimide carrier)
half-life (WinNonLin) ([1]; Sprague Dawley rats, plasma): 480 min
improvement in half-life vs rGhrelin ([1]; rats): 22 fold

half-life ([1]; rat, in vivo, Sprague Dawley rats, plasma, read-out: half-life (WinNonLin) (converted)): 22.2 min
Molecule: CCCCCCCC(=O)OC[C@H](NC(=O)[C@H](CO)NC(=O)CN)C(=O)N[C@@H](Cc1ccccc1)C(=O)N[C@@H](CC(C)C)C(=O)N[C@@H](CO)C(=O)N1CCC[C@H]1C(=O)N[C@@H](CCC(=O)O)C(=O)N[C@@H](Cc1c[nH]cn1)C(=O)N[C@@H](CCC(N)=O)C(=O)N[C@@H](CCCCN)C(=O)N[C@@H](C)C(=O)N[C@@H](CCC(N)=O)C(=O)N[C@@H](CCC(N)=O)C(=O)N[C@@H](CCCNC(=N)N)C(=O)N[C@@H](CCCCN)C(=O)N[C@@H](CCC(=O)O)C(=O)N[C@@H](CO)C(=O)N[C@@H](CCCCN)C(=O)N[C@@H](CCCCN)C(=O)N1CCC[C@H]1C(=O)N1CCC[C@H]1C(=O)N[C@@H](C)C(=O)N[C@@H](CCCCN)C(=O)N[C@@H](CC(C)C)C(=O)N[C@@H](CCC(N)=O)C(=O)N1CCC[C@H]1C(=O)N[C@@H](CCCNC(=N)N)C(=O)N[C@@H](CS)C(=O)O [rGhrelin, reference compound]

Molecule: CCCCCCCC(=O)OC[C@H](NC(=O)[C@H](CO)NC(=O)CN)C(=O)N[C@@H](Cc1ccccc1)C(=O)N[C@@H](CC(C)C)C(=O)N[C@@H](CO)C(=O)N1CCC[C@H]1C(=O)N[C@@H](CCC(=O)O)C(=O)N[C@@H](Cc1cnc[nH]1)C(=O)N[C@@H](CCC(N)=O)C(=O)N[C@@H](CCCNC(=N)N)C(=O)N[C@H](C(=O)N[C@@H](CCC(N)=O)C(=O)N[C@@H](CCC(N)=O)C(=O)N[C@@H](CCCNC(=N)N)C(=O)N[C@@H](CCCCN)C(=O)N[C@@H](CCC(=O)O)C(=O)N[C@@H](CO)C(=O)N[C@@H](CCCCN)C(=O)N[C@@H](CCCCN)C(=O)N1CCC[C@H]1C(=O)N1CCC[C@H]1C(=O)N[C@@H](C)C(=O)N[C@@H](CCCCN)C(=O)N[C@@H](CC(C)C)C(=O)N[C@@H](CCC(N)=O)C(=O)N1CCC[C@H]1C(=O)N[C@@H](CCCNC(=N)N)C(=O)O)C(C)C [ghrelin]
half-life [2]: 11 min

B1: FGF21-carrier conjugate: Modified FGF21 (SEQ ID NO:3) conjugated through its free cysteine to the Vitamin D3-PEG-maleimide carrier of Example 1 (conjugate)
chain: MGSHHHHHHSSGENLYFQGHPCPDSSPLLQFGGQVRQRYLYTDDAQQTEAHLEIREDGTVGGAADQSPESLLQLKALKPGVIQILGVKTSRFLCQRPDGALYGSLHFDPEACSFRELLLEDGYNVYQSEAHGLPLHLPGNKSPHRDPAPRGPARFLPLPGLPPALPEPPGILAPQPPDVGSSDPLSMVEPSQGRSPSYASP
modifications: Vitamin D3-PEG-maleimide carrier
area under the curve (AUC) ([3]; Sprague Dawley rats, plasma): 1047.98 ng·h/mL
average Cmax ([3]; Sprague Dawley rats, plasma): 143.526 ng/mL
increase in bioavailability (ratio of average Cmax, conjugate vs FGF21) ([3]; rats): 380 fold
increase in drug exposure (ratio of mean AUC, conjugate vs FGF21) ([3]; rats): 675 fold
